Measurements from patent US7741277 (AETERNA ZENTARIS, dated 2010).
Values joined by “and” are separate entries in the source; they are usually repeats but may differ in a detail not shown here. Equal values may be shown once.

T1: human GnRH receptor (hGnRH-R) (human, UniProt P30968 1-328)
T1 sequence (looked up): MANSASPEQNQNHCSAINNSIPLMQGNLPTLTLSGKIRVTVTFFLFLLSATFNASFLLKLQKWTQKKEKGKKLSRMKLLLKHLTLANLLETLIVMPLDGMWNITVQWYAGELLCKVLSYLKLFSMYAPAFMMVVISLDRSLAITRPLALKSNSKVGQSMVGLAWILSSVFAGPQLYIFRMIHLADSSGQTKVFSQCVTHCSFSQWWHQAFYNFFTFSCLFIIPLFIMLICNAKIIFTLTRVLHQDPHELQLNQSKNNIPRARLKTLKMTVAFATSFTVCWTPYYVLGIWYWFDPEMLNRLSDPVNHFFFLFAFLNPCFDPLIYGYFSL

B1: disorazole Z bis hemi glutaryl [D-Lys^6]LHRH (17) (peptide)
peptide: XHWSYKLRPG
modifications: Glp (pyroglutamate) at 1; D-Lys at 6, joined through a glutaryl linker to disorazole Z; C-terminal amide
B2: disorazole Z mono hemi succinyl [D-Lys^6]LHRH (16) (peptide)
peptide: XHWSYKLRPG
modifications: Glp (pyroglutamate) at 1; D-Lys at 6, joined through a succinyl linker to disorazole Z; C-terminal amide
B3: disorazole E1 mono hemi succinyl [D-Lys^6]LHRH, both regio-isomers (13) & (14) (peptide)
peptide: XHWSYKLRPG
modifications: Glp (pyroglutamate) at 1; D-Lys at 6, joined through a succinyl linker to disorazole E1; C-terminal amide

Biological target: T1, human GnRH receptor (hGnRH-R)
Assay: cell-based or functional assay

Molecule | proliferation status after 96 h (vital cells, untreated control = 100%), hGnRH-R positive cell line 5C6, 100 nM (% of untreated control) | proliferation status after 96 h (vital cells, untreated control = 100%), hGnRH-R positive cell line 5C6, 0.1 nM | proliferation status after 96 h (vital cells, untreated control = 100%), hGnRH-R positive cell line 5C6, 1 nM | proliferation status after 96 h (vital cells, untreated control = 100%), hGnRH-R positive cell line 5C6, 10 nM | proliferation status after 96 h (vital cells, untreated control = 100%), hGnRH-R positive cell line 5C6, 100 nM
AN-152 (peptide) | 42.1 and 43.9 |  |  |  | 
B1 |  | 95.5 % of untreated control | 85.9 % of untreated control | 58.5 % of untreated control | 41.7 % of untreated control
B2 |  | 83.8 % of untreated control | 80.9 % of untreated control | 54.1 % of untreated control | 21.9 % of untreated control
B3 |  | 85.9 % of untreated control | 80.8 % of untreated control | 45.9 % of untreated control | 14.6 % of untreated control
